Laboratory results as given in publication doi:10.1101/720938 (bioRxiv, 2019).

B1: PilA5 (TT_C1836), pilin of Thermus thermophilus HB27 (subunit of the narrow type IV pilus) (natural protein, T. thermophilus HB27, UniProt Q72GL2 6-116, looked up)
chain: FTLIELAIVIVIIGILVAIAVPRFVDLTDQANQANVDATAAAVRSAYAIATVQAKGIPTCDQVFANPEGGSTSGSTWTSSDNSTTVSCNASADTFTISRGGKTRTLNLTVN
modifications: extra density at Ser73, suggested to be O-linked glycosylation; disulphide bond Cys60-Cys88
B2: PilA4, major pilin of Thermus thermophilus HB27 (subunit of the wide type IV pilus) (natural protein, T. thermophilus HB27, UniProt Q72JC0 7-131, looked up)
chain: FTLIELLIVIAIIAILAAVLIPNLLAARKRANDTVVTAYLNDAVKFQEMYQIDNNSYTSNQAALISLGLKSTPANVTFSIVSASANSYCMIAGHSGGTVWFAATPDKGVYKTNTAVTSSQPESCP
modifications: extra densities at Ser59, Ser66 and Ser71, suggested to be O-linked glycosylation; disulphide bond Cys89-Cys124

Target: the molecule itself
Experiment: cryo-EM structure

Protein	binding result
B1	binds
B2	binds
